Measurements from publication PMC3981807.

Substrate: O=P(O)(O)O[C@H]1[C@H](OP(=O)(O)O)[C@@H](OP(=O)(O)O)[C@H](OP(=O)(O)O)[C@@H](OP(=O)(O)O)[C@H]1OP(=O)(O)O
Experiment: purified protein
Details: 50 mM sodium acetate pH 4.0, 50 °C, ionic strength 50 mM (NaCl), 3 min, sodium phytate 0.006-0.800 mM

B1: Bd1204 (Bdellovibrio bacteriovorus HD100) (protein)
chain: QKSVSLTPDKPVSTKIPFFMTRPQPTTPVELVFDKDHAAPKPMNYRKSDSLRMSGSATFSPKALKEVAKPVKKNKASLYVFDLRQESHGLINDIPVTWYADRDWANADLNHEEAVRRERRLLGDLRVGDKIGTTAIQSIETEESMIRTGGHQYVRLTVTDHVRPVDSEVDRFIESVRALPENAWVHFHCRAGKGRTTTFMVLYDMLKNAKTDSFEEIIKRNTELSNDYDVLTVPADEKDWKYPYQKERAAFVTEFYNYAKAHPNGEGMLWGEWVLR
  Km: 574 µM
  kcat: 124 s⁻¹
